T1: recombinant human IGSF8 extracellular domain tagged by a human Fc region (IGSF8-hFc) (human, UniProt Q969P0 28-579, biotin label in Examples 17, 18 and 28 (site not given))
T1 construct: also called IGSF8-Fc fusion protein; IGSF8-hFc-biotin; not shown: human Fc region
T1 sequence: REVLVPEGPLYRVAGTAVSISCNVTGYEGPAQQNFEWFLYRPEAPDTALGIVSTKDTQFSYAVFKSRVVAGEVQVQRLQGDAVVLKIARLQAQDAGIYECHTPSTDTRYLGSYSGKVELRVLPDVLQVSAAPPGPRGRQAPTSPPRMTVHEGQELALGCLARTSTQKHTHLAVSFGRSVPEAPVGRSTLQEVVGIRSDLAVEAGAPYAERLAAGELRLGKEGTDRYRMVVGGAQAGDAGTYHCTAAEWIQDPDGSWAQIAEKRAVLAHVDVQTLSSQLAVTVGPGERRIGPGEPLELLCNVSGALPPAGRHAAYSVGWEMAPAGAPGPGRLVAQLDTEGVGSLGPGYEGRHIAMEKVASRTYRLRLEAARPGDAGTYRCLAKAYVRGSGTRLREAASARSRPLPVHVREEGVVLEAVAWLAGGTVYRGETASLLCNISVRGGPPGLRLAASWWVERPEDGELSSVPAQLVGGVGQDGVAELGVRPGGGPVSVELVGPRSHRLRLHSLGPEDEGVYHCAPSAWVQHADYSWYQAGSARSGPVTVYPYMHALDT

T2: D1 domain of IGSF8 (recombinant protein) (human, UniProt Q969P0 28-149, limits assumed)
T2 construct: domain: D1 (Ig V-set domain); also called Ig V-set domain of IGSF8
T2 sequence (looked up): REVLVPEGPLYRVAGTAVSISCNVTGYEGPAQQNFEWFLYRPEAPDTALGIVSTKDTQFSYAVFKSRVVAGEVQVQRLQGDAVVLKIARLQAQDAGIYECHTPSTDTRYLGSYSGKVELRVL

T3: full-length IGSF8 (recombinant antigen of the SPR screen; IGSF8 target antigen of the phage panning) (human, UniProt Q969P0 28-579, limits assumed)
T3 sequence (looked up): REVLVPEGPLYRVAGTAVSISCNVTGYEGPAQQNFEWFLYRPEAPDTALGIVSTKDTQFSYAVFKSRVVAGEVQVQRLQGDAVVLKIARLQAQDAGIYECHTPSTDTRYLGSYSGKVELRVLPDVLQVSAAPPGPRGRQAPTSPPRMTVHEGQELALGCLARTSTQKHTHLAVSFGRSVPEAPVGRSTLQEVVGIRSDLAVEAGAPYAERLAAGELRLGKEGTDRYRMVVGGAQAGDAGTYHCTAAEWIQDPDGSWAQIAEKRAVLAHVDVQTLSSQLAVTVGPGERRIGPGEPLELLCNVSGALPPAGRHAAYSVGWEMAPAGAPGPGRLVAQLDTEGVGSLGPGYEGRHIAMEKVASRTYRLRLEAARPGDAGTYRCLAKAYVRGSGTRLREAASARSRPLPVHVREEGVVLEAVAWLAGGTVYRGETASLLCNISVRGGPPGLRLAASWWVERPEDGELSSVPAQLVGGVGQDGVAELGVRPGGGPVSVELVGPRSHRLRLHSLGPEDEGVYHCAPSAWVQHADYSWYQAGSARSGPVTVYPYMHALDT

T4: human IGSF8 expressed on the cell surface (human, UniProt Q969P0 28-613)
T4 construct: whole, on cells; also called human IGSF8 on CT26 cells; IGSF8 on MC38 cells
T4 sequence (looked up): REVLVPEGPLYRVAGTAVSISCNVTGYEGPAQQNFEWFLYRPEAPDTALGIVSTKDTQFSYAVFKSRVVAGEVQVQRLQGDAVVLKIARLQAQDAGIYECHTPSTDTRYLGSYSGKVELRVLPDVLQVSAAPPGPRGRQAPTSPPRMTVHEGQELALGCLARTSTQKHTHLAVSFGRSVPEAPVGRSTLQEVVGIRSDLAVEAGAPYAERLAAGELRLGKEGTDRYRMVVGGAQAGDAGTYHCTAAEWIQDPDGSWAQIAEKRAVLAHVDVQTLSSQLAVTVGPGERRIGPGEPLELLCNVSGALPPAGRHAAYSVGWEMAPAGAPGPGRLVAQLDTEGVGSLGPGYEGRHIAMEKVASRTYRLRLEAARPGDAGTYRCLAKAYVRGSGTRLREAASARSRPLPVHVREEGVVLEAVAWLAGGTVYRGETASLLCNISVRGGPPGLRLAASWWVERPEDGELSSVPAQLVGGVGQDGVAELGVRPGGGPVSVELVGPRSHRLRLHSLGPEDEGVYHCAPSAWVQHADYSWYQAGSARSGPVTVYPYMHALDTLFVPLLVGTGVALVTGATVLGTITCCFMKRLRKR

T5: IGSF8 protein without D1 domain (human, UniProt Q969P0 150-579, limits assumed)
T5 construct: domain: D2-4; also called D24; D2-4
T5 sequence (looked up): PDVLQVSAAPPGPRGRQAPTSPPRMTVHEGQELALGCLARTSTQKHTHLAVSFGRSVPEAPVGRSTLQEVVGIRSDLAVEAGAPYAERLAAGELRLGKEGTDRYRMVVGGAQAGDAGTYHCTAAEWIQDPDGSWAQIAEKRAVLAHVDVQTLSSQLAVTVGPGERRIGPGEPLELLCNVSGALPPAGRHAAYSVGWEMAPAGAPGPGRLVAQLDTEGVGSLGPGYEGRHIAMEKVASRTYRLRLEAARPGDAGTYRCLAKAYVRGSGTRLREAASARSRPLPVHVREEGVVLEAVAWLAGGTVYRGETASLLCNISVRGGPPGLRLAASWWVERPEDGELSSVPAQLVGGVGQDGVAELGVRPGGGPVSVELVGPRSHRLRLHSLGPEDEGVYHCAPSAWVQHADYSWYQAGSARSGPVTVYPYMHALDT


Legend:
[1] = target: T1, recombinant human IGSF8 extracellular …; experiment: FACS, biotin-labelled IGSF8 on CT26 cells expressing KIR3DL1/2 constructs, MFI normalized to Thy1.1
[2] = target: T2, D1 domain of IGSF8 (recombinant protein); experiment: SPR, Biacore T100
[3] = target: T3, full-length IGSF8 (recombinant antigen …); experiment: SPR, Biacore T100
[4] = target: T4, human IGSF8 expressed on the cell …; experiment: FACS on CT26 cells with forced surface expression of human IGSF8
Method: For antibody binding assays based on cell-expressed antigens, 100,000 cells overexpressing the antigen (either the full-length IGSF8 or the D1 domain thereof) were washed with PBS buffer containing 2% FBS, and then incubated with 100 μL of antibodies or IgG of different concentrations for 30 minutes on ice. Cells were then washed twice with wash buffer, and incubated with 100 μL of 1:100 anti-human Fc-PE antibody for 15 minutes on ice. Cells were washed twice with wash buffer and analyzed on a FACS analyzer (CytoFlex, Beckman).

[5] = target: T1, recombinant human IGSF8 extracellular …; experiment: FACS, biotin-labelled IGSF8-hFc on CT26 cells expressing the KIR, MFI normalized to Thy1.1
Method: For this experiment, different human KIR receptors (KIR2DL1, KIR2DL2, KIR2DL3, KIR2DL4, KIR2DL5A, KIR2DL5B, KIR3DL1, KIR3DL2, KIR3DL3) were first cloned into a proprietary lentiviral vector containing a thy1.1 tag (FIG. 17A). Then mouse CT26 cells, were transducted by these lentiviral constructs, and IGSF8 binding was tested with biotin-labelled recombinant IGSF8 hFc fusion protein. The mean fluorescence intensity (MFI) of IGSF8 binding to different CT26 cells were normalized by the expression of different KIRs on CT26 cells using an anti-thy1.1 mAb (Biolegend) via flow cytometry.
KLRC1 also contains a ITIM motif in its intracellular domain, and was known to be a inhibitory receptor of NK or CD8⁺ T cells as part of a heterodimer with KLRD1 on the cell surface. […] Specifically, 100,000 CT26 cells overexpressing the antigens (KIRs or KLRs) were washed with PBS buffer containing 2% FBS, and incubated with 100 μL IGSF8 recombinant proteins or antibodies (5 μg/mL) for 30 minutes on ice. Cells were then washed twice with wash buffer, and incubated with 100 μL of 1:100 anti-human Fc-PE antibody for 15 minutes on ice. Cells were washed twice with wash buffer and analyzed on a FACS analyzer (CytoFlex, Beckman). In these experiments, the mean fluorescence intensity (MFI) of IGSF8 binding to different CT26 cells were normalized by the expression of different KLRs on CT26 cells using an anti-thy1.1 mAb via flow cytometry.

[6] = target: T5, IGSF8 protein without D1 domain; experiment: FACS, single antibody dose, IGSF8-D24 (D2-D4 with TM, no D1) expressed on CT26 cells

Binder | binding result [1] | Kd [2] [nM] | Kd [3] [nM] | EC50 [4] [nM] | binding result [5] | further results
KIR3DL1 D1 construct on CT26 cells (receptor, human, UniProt P43629 22-118, looked up, domain: D1; also called D1/D3 construct) HMGGQDKPFLSAWPSAVVPRGGHVTLRCHYRHRFNNFMLYKEDRIHIPIFHGRIFQESFNMSPVTTAHAGNYTCRGSHPHSPTGWSAPSNPVVIMVT | no binding (tested: not shown on the sheet) | – | – | – | – | –
KIR3DL1 D3 construct on CT26 cells (receptor, human, UniProt P43629 222-340, looked up, domain: D3; also called D1/D3 construct) EKPSLSAQPGPKVQAGESVTLSCSSRSSYDMYHLSREGGAHERRLPAVRKVNRTFQADFPLGPATHGGTYRCFGSFRHSPYEWSDPSDPLLVSVTGNPSSSWPSPTEPSSKSGNPRHLH | no binding (tested: not shown on the sheet) | – | – | – | – | –
Antibody C37 (3F12) (antibody, V domains shown, also called mAb-3F12(C37)) VH: EVQLVQSGGGLVKPGGSLRLSCAASGFTFSSYSMNWVRQAPGKGLEWVSSISSSSSYIYYADSVKGRFTISRDNAKNSLYLQMNSLRAEDTAVYYCAGRQYDFWSGWDWFDPWGQGTLVTVSS VL: DIQLTQSPSSLSASVGDRVTITCRASQSISTYLNWYQQKPGKAPKLLIHDASILQSGVPSRFSGSGSGTDFTLTISSLQAEDFATYYCQQSYSTLPYTFGQGTKVEIK | – | < 50 | 22.5 | 5.93 | – | –
KIR3DL2 D3 construct on CT26 cells (receptor, human, UniProt P43630 222-340, looked up, domain: D3; also called D1/D3 construct) EKPSLSAQPGPTVQAGENVTLSCSSWSSYDIYHLSREGEAHERRLRAVPKVNRTFQADFPLGPATHGGTYRCFGSFRALPCVWSNSSDPLLVSVTGNPSSSWPSPTEPSSKSGICRHLH | no binding (tested: not shown on the sheet) | – | – | – | – | –
KIR2DL2 expressed on CT26 cells (receptor, human, UniProt P43627 22-348, looked up, whole, on cells) HEGVHRKPSLLAHPGRLVKSEETVILQCWSDVRFEHFLLHREGKFKDTLHLIGEHHDGVSKANFSIGPMMQDLAGTYRCYGSVTHSPYQLSAPSDPLDIVITGLYEKPSLSAQPGPTVLAGESVTLSCSSRSSYDMYHLSREGEAHECRFSAGPKVNGTFQADFPLGPATHGGTYRCFGSFRDSPYEWSNSSDPLLVSVIGNPSNSWPSPTEPSSKTGNPRHLHILIGTSVVIILFILLFFLLHRWCSNKKNAAVMDQESAGNRTANSEDSDEQDPQEVTYTQLNHCVFTQRKITRPSQRPKTPPTDIIVYAELPNAESRSKVVSCP | – | – | – | – | no binding | –
KIR2DL5A expressed on CT26 cells (receptor, human, UniProt Q8N109 22-375, looked up, whole, on cells) HEGGQDKPLLSAWPSAVVPRGGHVTLLCRSRLGFTIFSLYKEDGVPVPELYNKIFWKSILMGPVTPAHAGTYRCRGSHPRSPIEWSAPSNPLVIVVTGLFGKPSLSAQPGPTVRTGENVTLSCSSRSSFDMYHLSREGRAHEPRLPAVPSVNGTFQADFPLGPATHGGTYTCFGSLHDSPYEWSDPSDPLLVSVTGNSSSSSSSPTEPSSKTGIRRHLHILIGTSVAIILFIILFFFLLHCCCSNKKNAAVMDQEPAGDRTVNREDSDDQDPQEVTYAQLDHCVFTQTKITSPSQRPKTPPTDTTMYMELPNAKPRSLSPAHKHHSQALRGSSRETTALSQNRVASSHVPAAGI | – | – | – | – | no binding | –
KIR2DL5B expressed on CT26 cells (receptor, human, UniProt Q8NHK3 22-375, looked up, whole, on cells) HEGGQDKPLLSAWPSAVVPRGGHVTLLCRSRLGFTIFSLYKEDGVPVPELYNKIFWKSILMGPVTPAHAGTYRCRGSHPRSPIEWSAPSNPLVIVVTGLFGKPSLSAQPGPTVRTGENVTLSCSSRSSFDMYHLSREGRAHEPRLPAVPSVDGTFQADFPLGPATHGGTYTCFSSLHDSPYEWSDPSDPLLVSVTGNSSSSSSSPTEPSSKTGIRRHLHILIGTSVAIILFIILFFFLLHCCCSNKKNAAVMDQEPAGDRTVNREDSDDQDPQEVTYAQLDHCVFTQTKITSPSQRPKTPPTDTTMYMELPNAKPRSLSPAHKHHSQALRGSSRETTALSQNRVASSHVPAAGI | – | – | – | – | no binding | –
KIR3DL2 D1 construct on CT26 cells (receptor, human, UniProt P43630 22-118, looked up, domain: D1; also called D1/D3 construct) LMGGQDKPFLSARPSTVVPRGGHVALQCHYRRGFNNFMLYKEDRSHVPIFHGRIFQESFIMGPVTPAHAGTYRCRGSRPHSLTGWSAPSNPLVIMVT | no binding (tested: not shown on the sheet) | – | – | – | – | –
Antibody C30 (B34) (antibody, V domains shown, Expressed in CHO cells; also called mAb-B34 (C30)) VH: EVQLLESGGGLVQPGGSLRLSCAASGFTFSSYAMSWVRQAPGKGLEWVSGITGSGGSTYYADSVKGRFTISRDNSKNTLYLQMNSLRAEDTAVYYCARGRQVDKWGQGTLVTVSS VL: DIMLTQSPSSLSASVGDRVTITCRASQSIHNYLNWIQQTPGKAPKLLVFAASTLQRGVPPRYSGRGSGTEFTLTISSLQPEDFATYYCQQSYTTPLTFGGGTKVEIRR | – | < 50 | 13.8 | 7.88 | – | –
Antibody C38 (2B4) (antibody, V domains shown, also called mAb-2B4 (C38)) VH: EVQLVESGGGLEQPGGSLRLSCAGSGFTFRDYAMTWVRQAPGKGLEWVSSISGSGGNTYYADSVKGRFTISRDNSKNTLYLQMNSLRAEDTAIYYCARGEYSSGWPSWFDPWGQGTLVTVSS VL: EIVLTQSPSSLSASVGDRVTISCRASRTVGTFLNWYQQRPGKPPQALILGVSILEGGVSSRFSGAGSGTEFSLTISSLQPEDIGTYYCQQSHDVPRTFGQGTKVDLRR | – | < 50 | 3.83 | 4.64 | – | binding result [6]: no binding (tested: not shown on the sheet)
